According to PMC6688928:

How the values were obtained:
[1] = target: NaVAb/V100C/Q150C Δ28, disulfide-crosslinked; assay: cross-linking
[2] = target: MBP-NaVAb/KAV/G94C/Q150C, disulfide-crosslinked (UniProt A8EVM5); assay: cryo-EM structure
[3] = target: MBP-NaVAb/KAV/G94C/Q150C, disulfide-crosslinked (UniProt A8EVM5); assay: cross-linking
[4] = target: FLAG-NaVAb KAV/G94C/Q150C (Hi5 cells, crosslinking assay) (UniProt A8EVM5); assay: cross-linking
[5] = target: FLAG-NaVAb G94C/Q150C (Hi5 cells, crosslinking assay) (UniProt A8EVM5); assay: cross-linking
[6] = target: FLAG-NaVAb KAV/E96C/Q150C (Hi5 cells, crosslinking assay) (UniProt A8EVM5); assay: cross-linking
[7] = target: FLAG-NaVAb V100C/Q150C (Hi5 cells, crosslinking assay) (UniProt A8EVM5); assay: cross-linking
[8] = target: FLAG-NaVAb E96C/Q150C (Hi5 cells, crosslinking assay) (UniProt A8EVM5); assay: cross-linking

## NaVAb/V100C/Q150C Δ28, disulfide-crosslinked (domain or fragment)
[1]
  stoichiometry N: 4

## MBP-NaVAb/KAV/G94C/Q150C, disulfide-crosslinked (from UniProt A8EVM5 5-267) (natural protein)
[2]
  stoichiometry N: 4
[3]
  stoichiometry N: 4

## FLAG-NaVAb KAV/G94C/Q150C (Hi5 cells, crosslinking assay) (from UniProt A8EVM5 1-267) (natural protein)
[4]
  percent crosslinked in tetramers: 80%
  stoichiometry N: 4

## FLAG-NaVAb G94C/Q150C (Hi5 cells, crosslinking assay) (from UniProt A8EVM5 1-267) (natural protein)
[5]
  percent formation of disulfide-crosslinked tetramers: 20%
  stoichiometry N: 4

## FLAG-NaVAb KAV/E96C/Q150C (Hi5 cells, crosslinking assay) (from UniProt A8EVM5 1-267) (natural protein)
[6]
  percent crosslinked in tetramers: 80%
  stoichiometry N: 4

## FLAG-NaVAb V100C/Q150C (Hi5 cells, crosslinking assay) (from UniProt A8EVM5 1-267) (natural protein)
[7]
  percent formation of disulfide-crosslinked tetramers: 80%
  stoichiometry N: 4

## FLAG-NaVAb E96C/Q150C (Hi5 cells, crosslinking assay) (from UniProt A8EVM5 1-267) (natural protein)
[8]
  percent formation of disulfide-crosslinked tetramers: 40%
  stoichiometry N: 4
